Assay results from US11873336 (TENEOBIO, dated 2024).

T1: human CD22 protein (recombinant CD22 extracellular domain) (human, UniProt P20273 20-687)
T1 construct: extracellular domain; also called SIGLEC-2
T1 sequence (looked up): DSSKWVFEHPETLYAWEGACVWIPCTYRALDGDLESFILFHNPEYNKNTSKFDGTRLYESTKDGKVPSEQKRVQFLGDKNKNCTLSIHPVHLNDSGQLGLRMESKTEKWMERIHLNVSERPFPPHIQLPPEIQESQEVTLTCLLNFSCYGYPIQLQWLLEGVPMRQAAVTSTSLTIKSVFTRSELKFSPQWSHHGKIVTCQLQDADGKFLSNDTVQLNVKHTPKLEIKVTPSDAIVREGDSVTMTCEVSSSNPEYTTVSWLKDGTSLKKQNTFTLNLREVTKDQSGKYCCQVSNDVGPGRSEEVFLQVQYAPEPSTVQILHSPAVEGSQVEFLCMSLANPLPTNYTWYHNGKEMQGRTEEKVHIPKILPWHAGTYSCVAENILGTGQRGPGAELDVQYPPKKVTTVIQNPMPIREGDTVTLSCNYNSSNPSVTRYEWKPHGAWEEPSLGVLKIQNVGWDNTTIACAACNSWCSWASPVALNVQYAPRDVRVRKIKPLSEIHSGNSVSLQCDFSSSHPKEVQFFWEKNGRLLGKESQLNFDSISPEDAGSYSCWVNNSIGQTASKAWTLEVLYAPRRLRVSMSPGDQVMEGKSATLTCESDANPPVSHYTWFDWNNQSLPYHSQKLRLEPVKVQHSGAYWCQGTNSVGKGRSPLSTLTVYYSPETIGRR

T2: human CD22 on CD22-positive Burkitt's lymphoma cells (Daudi, Raji, Ramos) (human, UniProt P20273 20-847)
T2 construct: whole, on cells; also called CD22+ cells; CD22 positive cells
T2 sequence (looked up): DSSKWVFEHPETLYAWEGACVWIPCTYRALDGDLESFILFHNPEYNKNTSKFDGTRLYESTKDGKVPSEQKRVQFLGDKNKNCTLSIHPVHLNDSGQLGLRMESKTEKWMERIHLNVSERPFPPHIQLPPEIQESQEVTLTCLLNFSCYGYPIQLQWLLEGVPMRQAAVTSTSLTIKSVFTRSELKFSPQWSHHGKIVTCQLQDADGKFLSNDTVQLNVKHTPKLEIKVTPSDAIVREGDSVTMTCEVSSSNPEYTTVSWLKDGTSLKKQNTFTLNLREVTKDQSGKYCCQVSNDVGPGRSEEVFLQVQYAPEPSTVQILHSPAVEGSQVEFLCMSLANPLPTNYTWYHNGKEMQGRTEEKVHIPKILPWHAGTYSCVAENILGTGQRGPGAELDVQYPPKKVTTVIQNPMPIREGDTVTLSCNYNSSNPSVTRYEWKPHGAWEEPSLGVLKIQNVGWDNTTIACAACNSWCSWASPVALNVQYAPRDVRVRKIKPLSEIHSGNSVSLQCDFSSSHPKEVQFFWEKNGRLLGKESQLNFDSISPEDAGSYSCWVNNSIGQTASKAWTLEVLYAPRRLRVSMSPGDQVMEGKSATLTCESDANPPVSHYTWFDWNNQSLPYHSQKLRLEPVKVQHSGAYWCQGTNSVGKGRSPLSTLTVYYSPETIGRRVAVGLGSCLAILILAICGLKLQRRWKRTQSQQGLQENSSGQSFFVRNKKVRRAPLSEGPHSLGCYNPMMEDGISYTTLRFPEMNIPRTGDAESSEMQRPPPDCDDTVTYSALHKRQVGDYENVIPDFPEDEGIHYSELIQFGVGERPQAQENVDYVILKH


Columns and labels:
[1] = biological target: T1, human CD22 protein (recombinant CD22 …); assay: ELISA on recombinant CD22 extracellular domain and/or cell binding
[2] = biological target: T2, human CD22 on CD22-positive Burkitt's …; assay: cell binding, Daudi cells
Method: Binding to CD22 positive cells was assessed by flow cytometry (Guava easyCyte 8HT, EMD Millipore) using the Daudi cell line (ATCC). Briefly, 100,000 target cells were stained with a dilution series of purified UniAbs™ for 30 minutes at 4° C. Following incubation, the cells were washed twice with flow cytometry buffer (1×PBS, 1% BSA, 0.1% NaN_3) and stained with goat F(ab')2 anti-human IgG conjugated to R-phycoerythrin (PE) (Southern Biotech, cat. #2042-09) to detect cell-bound antibodies. After a 20-minute incubation at 4° C., the cells were washed twice with flow cytometry buffer and then mean fluorescence intensity (MFI) was measured by flow cytometry. EC50 values were calculated using GraphPad Prism 7. Binding to *cynomolgus* CD22 positive cells was determined using the same protocol with the following modifications: the target cells were from CHO cells stably transfected to express the extracellular domain of *cynomolgus* CD22 and each antibody was tested at a single concentration (~1.7 µg/mL) so EC50 values were not calculated.

| Binder | binding result [1] | binding result [2] |
| --- | --- | --- |
| anti-CD22 heavy chain-only antibody with the VH of SEQ ID NO: 39 (antibody, V domains shown, Heavy chain-only antibody (UniAb), human IgG) VH: QLQLQESGPGLVKPSETLSLTCTVSGDSISSGDYYWGWIRQPPGKGLEWIGHIYYSGATYYNPSLKNRVTISVDTSKNQFSLKLSSVTAADTAVYYCTREDSSNWRSRGQGTLVTVSS | binds | binds |
| anti-CD22 heavy chain-only antibody with the VH of SEQ ID NO: 40 (antibody, V domains shown, Heavy chain-only antibody (UniAb), human IgG) VH: QLQLQESGPGLVKPSETLSLTCTVSGDSISSGDYYWGWIRQPPGKGLEWIGHIYYSGATYYNPSLKNRVTISVDTSKNQFSLKLSSVTAADTAVYYCTREDSSSWRSRGQGTLVTVSS | binds | binds |
| anti-CD22 heavy chain-only antibody with the VH of SEQ ID NO: 42 (antibody, V domains shown, Heavy chain-only antibody (UniAb), human IgG) VH: QLQLQESGPGLVKPSETLSLTCTVSGDSISSGDYYWGWIRQPPGKGLEWIGSIYYSGATYYNPSLKNRVTISVDTSKNQFSLKLSSVTAADTAVYYCTRDDSSNWRSRGQGTLVTVSS | binds | binds |
| anti-CD22 heavy chain-only antibody with the VH of SEQ ID NO: 26 (antibody, V domains shown, Heavy chain-only antibody (UniAb), human IgG) VH: QLQLQESGPGLVKPSETLSLTCTVSGDSISSGDYYWGWIRQPPGKGLEWIGHIYYSGVTYYNPSLKNRVTISVDTSKNQFSLKLSSVTAADTAVYYCTREDSSSWRSRGQGTLVTVSS | binds | binds |
| anti-CD22 heavy chain-only antibody with the VH of SEQ ID NO: 34 (antibody, V domains shown, Heavy chain-only antibody (UniAb), human IgG) VH: QLQLQESGPGLVKPSETLSLTCTVSGDSISSGDYYWGWIRQPPGKGLEWIGHIYYSGVTYYNPSLKNRVTISVDTSRNQFSLKLSSVTAADTAVYYCTREDSSNWRSRGQGTLVTVSS | binds | binds |
| anti-CD22 heavy chain-only antibody with the VH of SEQ ID NO: 25 (antibody, V domains shown, Heavy chain-only antibody (UniAb), human IgG) VH: QLQLQESGPGLVKPSETLSLTCTVSGDSISSGDYYWGWIRQPPGKGLEWIGHIYYSGATYYNPSLENRVTISVDTSKNQFSLKLSSVTAADTAVYYCTRDDSSNWRSRGQGTLVTVSS | binds | binds |
| anti-CD22 heavy chain-only antibody with the VH of SEQ ID NO: 38 (antibody, V domains shown, Heavy chain-only antibody (UniAb), human IgG) VH: QLQLQESGPGLVKPSETLSLTCTVSGDSISSGDYYWGWIRQPPGKGLEWIGHIYYSGATYYNPSLKNRVTISVDTSRNQFSLNLSSVTAADTAVYYCTREDSSNWRSRGQGTLVTVSS | binds | binds |
| anti-CD22 heavy chain-only antibody with the VH of SEQ ID NO: 24 (antibody, V domains shown, Heavy chain-only antibody (UniAb), human IgG) VH: QLQLQESGPGLVKPSETLSLTCTVSGDSISSGDYYWGWIRQPPGKGLEWIGHIYYSGVTYYNPSLKSRVTISVDTSRNQFSLKLSSVTAADTAVYYCTREDSSNWRSRGQGTLVTVSS | binds | binds |
| anti-CD22 heavy chain-only antibody with the VH of SEQ ID NO: 33 (antibody, V domains shown, Heavy chain-only antibody (UniAb), human IgG) VH: QLQLQESGPGLVKPSETLSLTCTVSGDSISSGDYYWGWIRQPPGKGLEWIGHIYYSGVTYYNPSLKNRVTISVDTSKNQFSLKLSSVTAADTAVYYCTRDDSSNWRSRGQGTLVTVSS | binds | binds |
| anti-CD22 heavy chain-only antibody with the VH of SEQ ID NO: 32 (antibody, V domains shown, Heavy chain-only antibody (UniAb), human IgG) VH: QLQLQESGPGLVKPSETLSLTCTVSGDSISSGDYYWGWIRQPPGKGLEWIGHIYYSGATYYNPSLKNRVTISVDTSRNQFSLNLSSVTAADTAVYYCTREDSSSWRSRGQGTLVTVSS | binds | binds |
| anti-CD22 heavy chain-only antibody with the VH of SEQ ID NO: 30 (antibody, V domains shown, Heavy chain-only antibody (UniAb), human IgG) VH: QLQLQESGPGLVKPSETLSLTCTVSGDSISSGDYYWGWIRQPPGKGLEWIGHIYYSGATYYNPSLKNRVTISVDTSKNQFSLKLSSVTAADTAVYYCTRDDSSNWRSRGQGTLVTVSS | binds | binds |
| anti-CD22 heavy chain-only antibody with the VH of SEQ ID NO: 43 (antibody, V domains shown, Heavy chain-only antibody (UniAb), human IgG) VH: QLQLQESGPGLVKPSETLSLTCTVSGGSISSGDYYWGWIRQPPGKGLEWIGHIYYSGATYYNPSLKNRVTISVDTSRNQFSLKLSSVTAADTAVYYCTRDDSSNWRSRGQGTLVTVSS | binds | binds |

The remaining lines, values ahead:

| binding result [1] | binding result [2] | Binder |
| --- | --- | --- |
| binds | binds | anti-CD22 heavy chain-only antibody with the VH of SEQ ID NO: 28 (antibody, V domains shown, Heavy chain-only antibody (UniAb), human IgG) VH: QLQLQESGPGLVKPSETLSLTCTVSGDSISSGDYYWGWIRQPPGKGLEWIGHIYYSGATYYNPSLKNRVTISVDTSRNQFSLNLSSVTAADTAVYYCTRDDSSNWRSRGQGTLVTVSS |
| binds | binds | anti-CD22 heavy chain-only antibody with the VH of SEQ ID NO: 41 (antibody, V domains shown, Heavy chain-only antibody (UniAb), human IgG) VH: QLQLQESGPGLVKPSETLSLTCTVSGDSISSGDYYWGWIRQPPGKGLEWIGHIYYSGATYYNPSLKNRVTISVDTSRNQFSLKLSSVTAADTAVYYCTREDSSNWRSRGQGTLVTVSS |
| binds | binds | anti-CD22 heavy chain-only antibody with the VH of SEQ ID NO: 35 (antibody, V domains shown, Heavy chain-only antibody (UniAb), human IgG) VH: QLQLQESGPGLVKPSETLSLTCTVSGDSISSGDYYWGWIRQPPGKGLEWIGHIYYSGATYYNPSLENRVTISVDTSKNQFSLKLSSVTAADTAVYYCTREDSSSWRSRGQGTLVTVSS |
| binds | binds | anti-CD22 heavy chain-only antibody with the VH of SEQ ID NO: 37 (antibody, V domains shown, Heavy chain-only antibody (UniAb), human IgG) VH: QLQLQESGPGLVKPSETLSLTCTVSGDSISSGDYYWGWIRQPPGKGLEWIGHIYYSGVTYYNPSLKNRVTISVDTSKNQFSLKLSSVTAADTAVYYCTREDSSNWRSRGQGTLVTVSS |
| binds | binds | anti-CD22 heavy chain-only antibody with the VH of SEQ ID NO: 36 (antibody, V domains shown, Heavy chain-only antibody (UniAb), human IgG) VH: QLQLQESGPGLVKPSETLSLTCTVSGDSISSGDYYWGWIRQPPGKGLEWIGHIYYSGATYYNPSLKNRVTISVDTSRNQFSLKLSSVTAADTAVYYCTREDSSSWRSRGQGTLVTVSS |
| binds | binds | anti-CD22 heavy chain-only antibody with the VH of SEQ ID NO: 27 (antibody, V domains shown, Heavy chain-only antibody (UniAb), human IgG) VH: QLQLQESGPGLVKPSETLSLTCTVSGDSISSGDYYWGWIRQPPGKGLEWIGHIYYSGVTYYNPSLKNRVTISVDTSRNQFSLNLSSVTAADTAVYYCTREDSSSWRSRGQGTLVTVSS |
| binds | binds | anti-CD22 heavy chain-only antibody with the VH of SEQ ID NO: 31 (antibody, V domains shown, Heavy chain-only antibody (UniAb), human IgG) VH: QLQLQESGPGLVKPSETLSLTCTVSGDSISSGGYYWGWIRQPPGKGLEWIGHIYYSGATYYNPSLKNRVTISVDTSKNQFSLKLSSVTAADTAVYYCTRDDSSNWRSRGQGTLVTVSS |
| binds | binds | anti-CD22 heavy chain-only antibody with the VH of SEQ ID NO: 29 (antibody, V domains shown, Heavy chain-only antibody (UniAb), human IgG) VH: QLQLQESGPGLVKPSETLSLTCTVSGDSISSGDYYWGWIRQPPGKGLEWIGHIYYSGATYYNPSLKNRVTISVDTSRNQFSLKLSSVTAADTAVYYCTRDDSSNWRSRGQGTLVTVSS |
| binds | binds | anti-CD22 heavy chain-only antibody with the VH of SEQ ID NO: 44 (antibody, V domains shown, Heavy chain-only antibody (UniAb), human IgG) VH: QLQLQESGPGLVKPSETLSLTCTVSGGSISSGDYYWGWIRQPPGKGLEWIGHIYYSGATYYNPSLENRVTISVDTSKNQFSLKLSSVTAADTAVYYCTRDDSSNWRSRGQGTLVTVSS |
